Assay results as given in US20040019188A1, “Targeting through integrins” (priority 2000, published 2004).

Molecular target: β1 integrins on HEp-2 cells

RGDS peptide (Gibco)
ID30: 170 µmol/L
